Test results: article PMC4960888 (2016)
Ends that are not written are not given here.

B1: AGuIX@PEG@LPFFD@Cy5.5 (peptide)
chain: LPFFD
modifications: also: conjugated to AGuIX nanoparticle via PEG, labelled with Cy5.5, attachment sites not given here

Biological target: Aβ(1-42) fibrils 1-42 (Homo sapiens, UniProt P05067)
Assay: SPR

Chain of Aβ(1-42) fibrils 1-42 (P05067 1-42): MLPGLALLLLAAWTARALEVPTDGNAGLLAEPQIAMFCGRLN

Binder	Kd
LPFFD [LPFFD peptide]	317 µM
B1	261 µM
